The results in this text go back to patent US20140302041A1 (ORIBASE PHARMA, published 2014).

Experiment [1] deals with T1, human Axl on the cell surface (A549 cells; pancreatic cancer cell lines) (human, UniProt P30530 26-894).
T1 construct: whole, on cells; also called cell surface Axl; Axl receptor
T1 sequence (looked up): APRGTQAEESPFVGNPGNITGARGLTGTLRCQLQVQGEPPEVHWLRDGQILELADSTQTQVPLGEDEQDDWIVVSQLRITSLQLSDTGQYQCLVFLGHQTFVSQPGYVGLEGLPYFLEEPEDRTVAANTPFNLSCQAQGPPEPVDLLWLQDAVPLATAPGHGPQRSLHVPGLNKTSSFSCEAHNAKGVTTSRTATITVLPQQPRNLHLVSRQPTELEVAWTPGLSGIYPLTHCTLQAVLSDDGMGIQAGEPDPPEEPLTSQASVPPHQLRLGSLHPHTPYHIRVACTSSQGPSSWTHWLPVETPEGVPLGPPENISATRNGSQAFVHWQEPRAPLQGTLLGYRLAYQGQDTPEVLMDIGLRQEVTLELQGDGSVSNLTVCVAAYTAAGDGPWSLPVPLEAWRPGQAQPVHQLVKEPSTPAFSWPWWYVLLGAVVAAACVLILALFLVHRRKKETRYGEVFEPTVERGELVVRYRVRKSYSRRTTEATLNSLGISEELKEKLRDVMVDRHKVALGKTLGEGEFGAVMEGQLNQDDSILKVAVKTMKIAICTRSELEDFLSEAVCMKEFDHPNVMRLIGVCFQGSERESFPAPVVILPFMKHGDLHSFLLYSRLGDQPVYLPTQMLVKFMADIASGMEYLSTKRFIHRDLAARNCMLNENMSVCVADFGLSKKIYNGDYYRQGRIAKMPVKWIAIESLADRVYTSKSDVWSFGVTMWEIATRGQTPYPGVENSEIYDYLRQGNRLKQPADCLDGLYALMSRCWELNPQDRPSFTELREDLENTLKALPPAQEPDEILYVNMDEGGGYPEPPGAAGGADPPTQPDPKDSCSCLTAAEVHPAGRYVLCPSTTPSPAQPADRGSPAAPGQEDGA
In words: flow cytometry on A549 cells, fluorescein-conjugated anti-mouse IgG. The procedure: FIG. 2: Flow cytometry analysis of cell surface Axl in A549.
The ability of mouse anti-Axl monoclonal antibodies of the invention to specifically recognize Axl expressing cells was determined by FACS using standard techniques. Briefly, A549 cells (ATCC number: CCL-185) were harvested, stained with purified mouse anti-Axl monoclonal antibodies of the invention at 4° C. for 1 hour, washed three times in PBS-BSA 0.1%, and then stained with fluorescein-conjugated anti-mouse IgG (1:50) (Sigma) at 4° C. in the dark for 45 min. Samples were analyzed on EPICS flow cytometer (Beckman-Coulter, Fullerton, Calif.).
A general note: A flow cytometer gives signals particle by particle.

The next experiment concerns the target T2, mouse Axl-Fc (mouse, UniProt Q00993 20-443, limits assumed).
T2 construct: also called m-Axl; not shown: Fc part
T2 sequence (looked up): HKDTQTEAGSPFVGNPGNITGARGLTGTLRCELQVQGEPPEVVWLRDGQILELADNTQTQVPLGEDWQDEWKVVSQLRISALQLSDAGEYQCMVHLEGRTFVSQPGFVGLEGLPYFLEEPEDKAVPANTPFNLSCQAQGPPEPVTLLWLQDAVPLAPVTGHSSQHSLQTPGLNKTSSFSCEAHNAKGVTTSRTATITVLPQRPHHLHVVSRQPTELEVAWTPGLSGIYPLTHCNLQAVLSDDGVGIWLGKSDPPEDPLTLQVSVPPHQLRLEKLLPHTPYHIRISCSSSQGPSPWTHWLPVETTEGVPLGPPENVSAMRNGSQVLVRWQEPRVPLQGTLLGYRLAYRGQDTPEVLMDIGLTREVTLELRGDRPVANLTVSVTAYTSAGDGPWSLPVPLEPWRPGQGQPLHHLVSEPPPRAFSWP
Briefly: ELISA, plates with mouse Axl-Fc, HRP-conjugated anti-mouse IgG, OD 450 nm. On the procedure: (§1) FIG. 1: ELISA experiments to investigate the affinity and the specificity of mouse monoclonal antibodies against hAxl.
(§2) For cross reaction assay, coated plates were incubated with human Axl-Fc (h-Axl), mouse Axl-Fc (m-Axl) or human Mer-Fc (h-Mer), Tyro-3-Fc (h-Tyro-3) for 1 hour at 37° C. and washed four times in PBST. Plates were incubated with anti-Axl mAbs (2 hours at 37° C.) and washed four times in PBST. Plates were incubated with HRP-conjugated anti-mouse IgG (Sigma) at a 1:2000 dilution in PBST, 1% BSA (1 hour at 37° C.). Finally, an ortho-phenylenediamine solution (Sigma) was added for 30 min at room temperature in the dark and the absorbance was measured at 450 nm.

Experiment [2] concerns the target human Axl extracellular domain fused to human Fc domain (hAxl-hFc protein; R&D system) (human) (UniProt P30530). Briefly: SPR (BIAcore), hAxl-hFc amine-coupled to a CM5 chip; 20G7-D9 (666 nM by the text) injected first, lower panel.
A further experiment concerns the target T3, human Mer-Fc (human, UniProt Q12866 26-499, limits assumed).
T3 construct: also called h-Mer; not shown: Fc part
T3 sequence (looked up): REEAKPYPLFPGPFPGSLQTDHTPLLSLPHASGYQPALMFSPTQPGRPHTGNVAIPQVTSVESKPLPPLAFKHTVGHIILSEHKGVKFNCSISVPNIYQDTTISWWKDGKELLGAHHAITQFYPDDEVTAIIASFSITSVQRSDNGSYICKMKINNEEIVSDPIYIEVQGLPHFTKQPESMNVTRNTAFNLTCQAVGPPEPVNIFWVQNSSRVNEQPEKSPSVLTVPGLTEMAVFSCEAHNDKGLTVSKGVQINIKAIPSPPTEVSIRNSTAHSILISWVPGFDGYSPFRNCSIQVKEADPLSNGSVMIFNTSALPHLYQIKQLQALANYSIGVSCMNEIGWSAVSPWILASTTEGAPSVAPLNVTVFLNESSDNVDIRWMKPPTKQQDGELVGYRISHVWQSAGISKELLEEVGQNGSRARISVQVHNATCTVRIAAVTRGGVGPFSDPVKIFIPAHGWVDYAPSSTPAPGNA
In words: ELISA, plates with human Mer-Fc, HRP-conjugated anti-mouse IgG, OD 450 nm. On the procedure:
as §1, §2

Experiment [3] addresses human Axl extracellular domain fused to human Fc domain (hAxl-hFc protein; R&D system) (human) (UniProt P30530). Briefly: SPR (BIAcore 3000), hAxl-hFc amine-coupled on CM5 chip, mAb injected at 2 to 133 nM, 25 °C, 1:1 Langmuir model; hAxl-hFc on the CM5 chip, mAb injected at 2 to 133 nM, 25 C. For orientation: Surface plasmon resonance follows binding to a sensor surface in real time, without labels.

Experiment [4] has the same target. Briefly: SPR (BIAcore), hAxl-hFc amine-coupled to a CM5 chip; 20G7-D9 (666 nM by the text) injected second, without removing Gas6, upper panel.
Another experiment deals with T4, Tyro-3-Fc (h-Tyro-3) (human, UniProt Q06418 41-428, limits assumed).
T4 construct: The species is read from the label 'h-Tyro-3'; also called human Tyro-3-Fc; not shown: Fc part
T4 sequence (looked up): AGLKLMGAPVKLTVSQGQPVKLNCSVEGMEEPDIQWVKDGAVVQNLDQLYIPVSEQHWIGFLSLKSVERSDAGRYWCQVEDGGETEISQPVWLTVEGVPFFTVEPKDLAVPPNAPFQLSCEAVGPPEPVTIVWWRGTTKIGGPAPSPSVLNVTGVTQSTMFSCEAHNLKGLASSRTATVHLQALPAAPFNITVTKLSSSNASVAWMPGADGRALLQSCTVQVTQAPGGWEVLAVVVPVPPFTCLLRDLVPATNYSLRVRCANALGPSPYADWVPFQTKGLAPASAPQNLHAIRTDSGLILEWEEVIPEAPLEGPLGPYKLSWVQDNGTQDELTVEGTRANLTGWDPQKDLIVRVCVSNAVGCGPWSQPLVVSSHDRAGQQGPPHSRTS
Briefly: ELISA, plates with human Tyro-3-Fc, HRP-conjugated anti-mouse IgG, OD 450 nm. The procedure:
as §1, §2

The Kd is a measure of binding affinity in units of concentration. A high value points to weaker binding.

B1: mouse anti-Axl monoclonal antibody 20G7-D9 (antibody, V domains shown)
VH: QVQLQQSGAELMKPGASVKMSCKAAGYTFSSYWIEWVRQRPGHGLEWIGEIFPGSDSTNYNEKFNDRATFTADTSSNTAYMQLSSLTSEDSAVYYCARPLYYGSSAWFAYWGQGTLVTVSA
VL: DIQMTQSPASLSASVGETVTITCRASENIYSYLTWYQQKQRKSPQLLVYNAKTLAEGVPSRFSGSGSGTQFSLKINSLQPEDFGTYYCQHHYATPWTFGGGTKVEIK
notes: the irrelevant control Px is called 'murine IgG1 isotype mAb'; also called mAb 20G7-D9; mAb 20G7D9
B1: the binding result is given as “binds” in experiment [1], “no binding” with mouse Axl-Fc, “no binding” with human Mer-Fc and “no binding” with Tyro-3-Fc (h-Tyro-3). For the same molecule, the response (RU) in experiment [2] was 2530 RU; in experiment [4] it was 2280 RU. The Kd in experiment [3] turned out to be 53 nM.
